The source of these data is patent publication US20220267369A1.

The target of assay [1] is Protein A ligand of MabSelect Sure resin (GE Healthcare, Chicago, IL). In words: resin slurry plate partitioning on Protein A MabSelect Sure; Strip: 100 mM acetic acid.
Assay [2] has the same target. In words: resin slurry plate partitioning on Protein A MabSelect Sure; Equil/wash: 10 mM NaPhosphate, pH 6.5.
For assay [3] the target is unchanged. In words: resin slurry plate partitioning on Protein A MabSelect Sure; Elute: 20 mM NaAcetate, pH 3.5.
For assay [4] the target is unchanged. In words: separation factor on Protein A MabSelect Sure against mAb1; Elute: 20 mM NaAcetate, pH 3.5.
Assay [5] has the same target. In words: separation factor on Protein A MabSelect Sure against mAb2; High salt wash: 10 mM NaPhosphate, pH 6.5, 0.5M NaCl.
For assay [6] the target is unchanged. In words: separation factor on Protein A MabSelect Sure against mAb1; Equil/wash: 10 mM NaPhosphate, pH 6.5.
Assay [7] has the same target. In words: separation factor on protein A resin against mAb3, loading condition.
The target is the same in assay [8]. In words: resin slurry plate partitioning on Protein A MabSelect Sure; High salt wash: 10 mM NaPhosphate, pH 6.5, 0.5M NaCl.
Assay [9] shares this target. In words: separation factor on Protein A MabSelect Sure against mAb1; High salt wash: 10 mM NaPhosphate, pH 6.5, 0.5M NaCl.
The target is the same in assay [10]. In words: separation factor on Protein A MabSelect Sure against mAb2; Equil/wash: 10 mM NaPhosphate, pH 6.5.
Assay [11] shares this target. In words: separation factor on Protein A MabSelect Sure against mAb1; Strip: 100 mM acetic acid.
Assay [12] has the same target. In words: separation factor on Protein A MabSelect Sure against mAb2; Elute: 20 mM NaAcetate, pH 3.5.
Assay [13] shares this target. In words: separation factor on Protein A MabSelect Sure against mAb2; Strip: 100 mM acetic acid.

With phospholipase B-like 2 (PLBL2) (enzyme), the log KP (partition coefficient, bound/free on resin) in assay [1], in [2], in assay [3] and in assay [8] was 0 throughout. For the same substance, the log α (log KP PLBL2 - log KP mAb1) in assay [4] was 0; in assay [6], -2; in assay [9], -2; in assay [11], 0. The log α (log KP PLBL2 - log KP mAb2) was -2 in assay [5], -2 in [10], -0.3 in assay [12] and 0 in [13]. The substance further registered a log α (log KP PLBL2 - log KP mAb3) in assay [7] of -2.
